Starred links: 1 amine or outer side, 2 acyl side, 3 side chain; linkers in the order of their positions; H or OH if unused. Non-standard residues stand in square brackets, D forms with d. Groups on a side chain read outwards from the residue. Primed or numbered codes have the meaning given here. No end group written: not given here. *: point of attachment. C20 diacid = O=C(O)CCCCCCCCCCCCCCCCCCC(=O)*; C18 diacid = O=C(O)CCCCCCCCCCCCCCCCC(=O)*; d(βAsp) = O=C(O)[C@@H](CC(=O)[*:2])N[*:1]; γGlu = O=C(O)[C@H](CCC(=O)[*:2])N[*:1]; 2Nal = N[C@@H](Cc1ccc2ccccc2c1)C(=O)O; Desaminohistidyl = O=C(CCc1c[nH]cn1)*; Trx = NC[C@H]1CC[C@H](C(=O)O)CC1; Trx′ = not defined here; AEEA = NCCOCCOCC(=O)O; Aib = CC(C)(N)C(=O)O; Inp = O=C(O)C1CCNCC1; Bn = c1ccc(C*)cc1
B1: N-epsilon26-[2-(2-{2-[(S)-4-Carboxy-4-((S)-4-carboxy-4-{12-[4-(16-(1H-tetrazol-5-yl)hexadecanoylsulfamoyl)butyrylamino]dodecanoylamino}butyrylamino)butyrylamino … (peptide)
peptide: HAEGTFTSDVSSYLEGQAAKEFIAWLKR
modifications: Aib8; N-epsilon26 (so in the source) carries the acyl side chain printed in the name
notes: GLP-1-(7-34) = residues 1-28 of the entry
B2: [ImPr^7,Arg^26,34,Glu^22]GLP-1-(7-37)Lys[2-(2-[2-((S)-4-((S)-4-(12-[4-(16-1H-tetrazol-5-ylhexadecanoylsulfamoyl)butyrylamino]dodecanoylamino)-4-carboxybutyrylam … (peptide)
peptide: HAEGTFTSDVSSYLEEQAAREFIAWLVRGRGK
modifications: ImPr7 (imidazopropionic acid = des-amino-histidine); the added C-terminal Lys carries the acyl side chain printed in the name; C-terminal amide
B3: [desaminoHis^7,Arg^26,Arg^34]GLP-1-(7-37)Lys[2-(2-[2-(2-[2-(2-((R)-3-[trans-4-((9-Carboxynonadecanoylamino]methyl)cyclohexylcarbonylamino]3-carboxypropionylamin … (peptide)
peptide: [Desaminohistidyl]AEGTFTSDVSSYLEGQAAREFIAWLVRGRGK-NH2
modifications: not fully specified (residue 32); printed as [desaminoHis^7,Arg^26,Arg^34]GLP-1-(7-37)Lys[2-(2-[2-(2-[2-(2-((R)-3-[trans-4-((9-Carboxynonadecanoylamino]methyl)cyclohexylcarbonylamino]3-carboxypropionylamino)ethoxy)ethoxy]acetylamino)ethoxy]ethoxy)acetyl]amide
B4: [Aib8,Glu22,Arg26,Glu30,Pro37]GLP-1-((7-37)Lys … (peptide)
peptide: H[Aib]EGTFTSDVSSYLEEQAAREFIEWLVKGRPK
modifications: not fully specified (residue 32); printed as [Aib8,Glu22,Arg26,Glu30,Pro37]GLP-1-(7-37)Lys (2-(2-(3-(2-(2-(2-(2-(2-(2-(2-(2-(2-(2-(2-(2-[4-(S)-carboxy-4-(4-(S)-carboxy-4-(4-{4-[16-(Tetrazol-5-yl)hexadecanoylsulfamoyl]butanoylamino}butanoylamino) butyrylamino)butyrylamino]ethoxy)ethoxy)ethoxy)ethoxy)ethoxy)ethoxy)ethoxy)ethoxy)ethoxy)ethoxy)ethoxy)ethoxy) propionylamino)ethoxy)ethoxy) peptide
B5: N-alpha37-[2-(2-{2-[2-(2-{2-[(S)-4-Carboxy-4-({trans-4-[(19-carboxynonadecanoylamino)methyl]cyclohexanecarbonyl}amino)butyrylamino]ethoxy}ethoxy)acetylamino]eth … (peptide)
peptide: HAEGTFTSDVSSYLEEQAAREFIAWLVRGRK
modifications: desaminoHis7; Lys37 is bound to the peptide via its epsilon amino group (epsilon-Lys37); its N-alpha carries the acyl side chain printed in the name
B6: N-epsilon37-[2-(2-{2-[(S)-4-Carboxy-4-((S)-4-carboxy-4-{12-[4-(16-(1H-tetrazol-5-yl)hexadecanoylsulfamoyl)butyrylamino]dodecanoylamino}butyrylamino)butyrylamino … (peptide)
peptide: HAEGTFTSDVSSYLEEQAAREFIAWLVRGRK
modifications: Aib8; Lys37 N-epsilon carries the acyl side chain printed in the name; C-terminal amide
B7: N-epsilon20-[2-(2-{2-[(S)-4-Carboxy-4-((S)-4-carboxy-4-{12-[4-(16-(1H-tetrazol-5-yl)hexadecanoylsulfamoyl)butyrylamino]dodecanoylamino}butyrylamino)butyrylamino … (peptide)
peptide: HAEGTFTSDVSSYKEEQAAREFIEWLVKGRP
modifications: Aib8; Lys20 N-epsilon carries the acyl side chain printed in the name; C-terminal amide
B8: N-ε^20({2-[2-(2-{2-[2-((R)-3-carboxy-3-{[1-(17-carboxyheptadecanoyl)piperidine-4-carbonyl]amino}propionylamino)ethoxy]ethoxy}acetylamino)ethoxy]ethoxy}acetyl) … (peptide)
peptide: H[Aib]EGTFTSDVSSYK([AEEA-AEEA-d(βAsp)-Inp-C18 diacid])EGQAAREFIEWLT(Bn)KGRG-NH2
modifications: not fully specified; printed as N-ε^20({2-[2-(2-{2-[2-((R)-3-carboxy-3-{[1-(17-carboxyheptadecanoyl)piperidine-4-carbonyl]amino}propionylamino)ethoxy]ethoxy}acetylamino)ethoxy]ethoxy}acetyl) [Aib^8,Lys^20,Arg^28,Glu^30,Thr(O-benzyl)^33,]GLP-1-(7-37)amide
notes: Arg26 used; also called [Aib^8,Lys^20,Arg^26,Glu^30,Thr(O-benzyl)^33,]GLP-1-(7-37)amide derivative
B9: N-epsilon31{2-[2-(2-{2-[2-((S)-3-carboxy-3-{[1-(19-carboxynonadecanoyl)piperidine-4-carbonyl]amino}propionylamino)ethoxy]ethoxy}acetylamino)ethoxy]ethoxy}acetyl … (peptide)
peptide: H[Aib]EGTFTSDVSSYLEEQAAREFIAKLVKGRG
modifications: not fully specified (residue 25); printed as N-epsilon31{2-[2-(2-{2-[2-((S)-3-carboxy-3-{[1-(19-carboxynonadecanoyl)piperidine-4-carbonyl]amino}propionylamino)ethoxy]ethoxy}acetylamino)ethoxy]ethoxy}acetyl [Aib8, Glu22, Arg26,Lys 31]GLP-1-(7-37)
B10: N-epsilon30{2-[2-(2-{2-[2-((S)-3-carboxy-3-{[1-(19-carboxynonadecanoyl)piperidine-4-carbonyl]amino}propionylamino)ethoxy]ethoxy}acetylamino)ethoxy]ethoxy}acetyl … (peptide)
peptide: H[Aib]EGTFTSDVSSYLEEQAAREFIKWLVKGRG
modifications: not fully specified (residue 24); printed as N-epsilon30{2-[2-(2-{2-[2-((S)-3-carboxy-3-{[1-(19-carboxynonadecanoyl)piperidine-4-carbonyl]amino}propionylamino)ethoxy]ethoxy}acetylamino)ethoxy]ethoxy}acetyl [Aib8,Glu22,Arg26,Lys30]GLP-1-(7-37)
B11: N-epsilon31-(2-{2-[2-(2-{2-[2-((S)-3-Carboxy-3-{[1-(19-carboxy-nonadecanoyl)piperidine-4-carbonyl]amino}propionylamino)ethoxy]ethoxy}acetylamino)ethoxy]ethoxy}a … (peptide)
peptide: H[Aib]EGTFTSDVSSYLEEQAAREFIAKLVRGRG
modifications: not fully specified (residue 25); printed as N-epsilon31-(2-{2-[2-(2-{2-[2-((S)-3-Carboxy-3-{[1-(19-carboxy-nonadecanoyl)piperidine-4-carbonyl]amino}propionylamino)ethoxy]ethoxy}acetylamino)ethoxy]ethoxy}acetyl)[Aib8,Glu22,Arg26,Lys31,Arg34]GLP-1-(7-37)
B12: N-epsilon26-[2-(2-[2-(2-[2-(2-((R)-3-[trans-4-((9-Carboxynonadecanoylamino]methyl)cyclohexylcarbonylamino]3-carboxypropionylamino)ethoxy)ethoxy]acetylamino)etho … (peptide)
peptide: H[Aib]EGTFTSDVSSYLEEQAAKEFIAWLVQGRG
modifications: not fully specified (residue 20); printed as N-epsilon26-[2-(2-[2-(2-[2-(2-((R)-3-[trans-4-((9-Carboxynonadecanoylamino]methyl)cyclohexylcarbonylamino]3-carboxypropionylamino)ethoxy)ethoxy]acetylamino)ethoxy]ethoxy)acetyl][Aib8, Glu22, Gln34]GLP-1-(7-37)
B13: N-epsilon … (peptide)
peptide: H[Aib]EGTFTSDVSKYLE[Aib]QAAREFIAWLVR[Aib]RG
modifications: not fully specified (residue 12); printed as N-epsilon 18-[2-(2-[2-(2-[2-(2-((R)-3-[trans-4-((9-Carboxynonadecanoylamino]methyl)cyclohexylcarbonylamino]3-carboxypropionylamino)ethoxy)ethoxy]acetylamino)ethoxy]ethoxy)acetyl][Aib8, 22,35, Lys18, Arg26,34]GLP-1-(7-37)
B14: N-epsilon … (peptide)
peptide: HAEGTFTSDVSKYLEEQAAKEFIAWLVQGRG
modifications: not fully specified; Aib8; Lys18 N-epsilon carries the acyl side chain printed in the name
B15: [DesaminoHis7,Glu22,Arg26,Arg34]GLP-1-(7-37)Lys[2-(2-{2-[2-(2-{2-[4-Carboxy-4-({trans-4-[(19-carboxy-nonadecanoylamino)methyl]cyclohexanecarbonyl}amino)butyryla … (peptide)
peptide: [Desaminohistidyl]AEGTFTSDVSSYLEEQAAREFIAWLVRGRGK([AEEA-AEEA-γGlu-Trx-C20 diacid])-NH2
SMILES: CC[C@H](C)[C@H](NC(=O)[C@H](Cc1ccccc1)NC(=O)[C@H](CCC(=O)O)NC(=O)[C@H](CCCNC(=N)N)NC(=O)[C@H](C)NC(=O)[C@H](C)NC(=O)[C@H](CCC(N)=O)NC(=O)[C@H](CCC(=O)O)NC(=O)[C@H](CCC(=O)O)NC(=O)[C@H](CC(C)C)NC(=O)[C@H](Cc1ccc(O)cc1)NC(=O)[C@H](CO)NC(=O)[C@H](CO)NC(=O)[C@@H](NC(=O)[C@H](CC(=O)O)NC(=O)[C@H](CO)NC(=O)[C@@H](NC(=O)[C@H](Cc1ccccc1)NC(=O)[C@@H](NC(=O)CNC(=O)[C@H](CCC(=O)O)NC(=O)[C@H](C)NC(=O)CCc1c[nH]cn1)[C@@H](C)O)[C@@H](C)O)C(C)C)C(=O)N[C@@H](C)C(=O)N[C@@H](Cc1c[nH]c2ccccc12)C(=O)N[C@@H](CC(C)C)C(=O)N[C@H](C(=O)N[C@@H](CCCNC(=N)N)C(=O)NCC(=O)N[C@@H](CCCNC(=N)N)C(=O)NCC(=O)N[C@@H](CCCCNC(=O)COCCOCCNC(=O)COCCOCCNC(=O)CC[C@H](NC(=O)[C@H]1CC[C@H](CNC(=O)CCCCCCCCCCCCCCCCCCC(=O)O)CC1)C(=O)O)C(N)=O)C(C)C
B16: N-alpha8-[2-(4-imidazolyl)acetyl] … (peptide)
peptide: {2‑(4-imidazolyl)acetyl}-AEGTFTSDVSSYLEEQAAREFIAWLVRGRK([AEEA-AEEA-γGlu-Trx′-C20 diacid])
modifications: reading uncertain; also: printed as N-alpha8-[2-(4-imidazolyl)acetyl] N-epsilon37-[2-(2-{2-[2-(2-{2-[(S)-4-Carboxy-4-({trans-4-[(19-carboxynonadecanoylamino)methyl]cyclohexanecarbonyl}amino)butyrylamino]ethoxy}ethoxy)acetylamino]ethoxy}ethoxy)acetyl][Glu22,Arg26,Arg34,Lys37]GLP-1-(8-37)
notes: GLP-1-(8-37) = residues 2-31 of the entry
B17: N-epsilon37{2-[2-(2-{2-[2-((S)-3-carboxy-3-{[1-(19-carboxynonadecanoyl)piperidine-4-carbonyl]amino}propionylamino)ethoxy]ethoxy}acetylamino)ethoxy]ethoxy}acetyl … (peptide)
peptide: H[Aib]EGTFTSDVSSYLEEQAAREFIAWLVRGRK-NH2
modifications: not fully specified (residue 31); printed as N-epsilon37{2-[2-(2-{2-[2-((S)-3-carboxy-3-{[1-(19-carboxynonadecanoyl)piperidine-4-carbonyl]amino}propionylamino)ethoxy]ethoxy}acetylamino)ethoxy]ethoxy}acetyl [Aib8,Glu22,Arg26,Arg34,Lys37]GLP-1-(7-37)amide

Biological target: T1, human serum albumin (HSA) (human, UniProt P02768 25-609, biotinylated)
T1 construct: also called biotinylated HSA
Experiment: competition SPA on biotinylated HSA, 125I acylated GLP-1 tracer;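 further: streptavidin SPA beads carrying biotinylated HSA, competition incubated 20 h at room temperature, plates then read on a TopCount counter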
Protocol: Streptavidin-SPA beads (GE Healthcare RPNQ0009) were incubated with biotinylated HSA for 5 hours. The beads were washed with buffer to remove unbound HSA. […] After 20 hours of gentle rocking at room temperature the plates were centrifuged and counted on a TopCounter.

Binder	EC50
B1	1 to 100 nM
B2	1 to 100 nM
B3	> 2000 nM
[Desaminohistidyl]AEGTFTSDVSSYLEGQAAREFIAWLVRGRGK([AEEA-AEEA-γGlu-Inp-C20 diacid]) [[DesaminoHis7,Arg26,34]-GLP-1 …]	> 2000 nM
HAEGTFTSDVSSYLEEQAAREFIEWLVKGRPK (Aib8; the added C-terminal Lys carries the acyl side chain printed in the name) [[Aib8,Glu22,Arg26,Glu30,Pro37]GLP-1-(7-37)Lys …]	150 to 300 nM
B4	300 to 800 nM
B5	1 to 100 nM
B6	800 to 2000 nM
HAEGTFTSDVSSYLEEQAAREFIAWLVRGRK (Aib8; Lys37 N-epsilon carries the acyl side chain printed in the name)	1 to 100 nM
B7	1 to 100 nM
H[Aib]EGT[2Nal]TSDVSSYK([AEEA-AEEA-d(βAsp)-Inp-C18 diacid])EGQAAREFIEWLVKGRG-NH2	150 to 300 nM
B8	300 to 800 nM
B9	100 to 150 nM
B10	150 to 300 nM
B11	150 to 300 nM
B12	100 to 150 nM
B13	800 to 2000 nM
B14	800 to 2000 nM
H[Aib]EGTFTSDVSSYK([AEEA-AEEA-d(βAsp)-Inp-C18 diacid])EGQAARE[2Nal]IEWLVKGRG-NH2	800 to 2000 nM
B15	800 to 2000 nM
B16	150 to 300 nM
B17	300 to 800 nM
H[Aib]EGTFTSDVSSYLEEQAAREFIAWLVRGRK([AEEA-AEEA-γGlu-Trx-C20 diacid])-NH2	800 to 2000 nM

Source: patent US20140011732A1 (Novo Nordisk, published 2014)
